Reference: patent publication US20240383967A1 (UNIVERSITY OF SOUTHERN CALIFORNIA, published 2024)

B1: Syn-LC-CTSSpp Fab (Fab)
light: QLHKDPTLDHHWHLWKKTYGKQYKEKNEEAVRRLIWEKNLKFVMLHNLEHSMGMHSYDLGMNHLGDMTSEEVMSLMSSLRVPSQWQRNITYKSNPNRGGGGSDIQMTQSPSTLSASVGDRVTITCKCQLSVGYMHWYQQKPGKAPKLLIYDTSKLASGVPSRFSGSGSGTEFTLTISSLQPDDFATYYCFQGSGYPFTFGGGTKLEIKRTVAAPSVFIFPPSDEQLKSGTASVVCLLNNFYPREAKVQWKVDNALQSGNSQESVTEQDSKDSTYSLSSTLTLSKADYEKHKVYACEVTHQGLSSPVTKSFNRGEC
heavy: QVTLRESGPALVKPTQTLTLTCTFSGFSLSTSGMSVGWIRQPPGKALEWLADIWWDDKKDYNPSLKSRLTISKDTSKNQVVLKVTNMDPADTATYYCARSMITNWYFDVWGAGTTVTVSSASTKGPSVFPLAPSSKSTSGGTAALGCLVKDYFPEPVTVSWNSGALTSGVHTFPAVLQSSGLYSLSSVVTVPSSSLGTQTYICNVNHKPSNTKVDKKVEPKSCDKTHT
B2: Her-HC-CTSSpp IgG (antibody)
heavy: EVQLVESGGGLVQPGGSLRLSCAASGFNIKDTYIHWVRQAPGKGLEWVARIYPTNGYTRYADSVKGRFTISADTSKNTAYLQMNSLRAEDTAVYYCSRGGSGAKLAALKAKLAALKCGGGGSIEGRQLHKDPTLDHHWHLWKKTYGKQYKEKNEEAVRRLIWEKNLKFVMLHNLEHSMGMHSYDLGMNHLGDMTSEEVMSLMSSLRVPSQWQRNITYKSNPNRGGGGSCELAALEAELAALEAGGSGDYWGQGTLVTVSSASTKGPSVFPLAPSSKSTSGGTAALGCLVKDYFPEPVTVSWNSGALTSGVHTFPAVLQSSGLYSLSSVVTVPSSSLGTQTYICNVNHKPSNTKVDKKVEPKSCDKTHTCPPCPAPPVAGPSVFLFPPKPKDTLMISRTPEVTCVVVDVSHEDPEVKFNWYVDGVEVHNAKTKPREEQYNSTYRVVSVLTVLHQDWLNGKEYKCKVSNKGLPSSIEKTISKAKGQPREPQVYTLPPSRDELTKNQVSLTCLVKGFYPSDIAVEWESNGQPENNYKTTPPVLDSDGSFFLYSKLTVDKSRWQQGNVFSCSVMHEALHNHYTQKSLSLSPGK
light: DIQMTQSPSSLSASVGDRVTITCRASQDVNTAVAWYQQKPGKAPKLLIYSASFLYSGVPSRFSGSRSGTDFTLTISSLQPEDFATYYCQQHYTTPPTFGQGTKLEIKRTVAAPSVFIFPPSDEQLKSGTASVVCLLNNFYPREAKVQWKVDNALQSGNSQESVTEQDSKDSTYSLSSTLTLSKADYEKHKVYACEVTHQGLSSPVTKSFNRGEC
notes: Full-length IgG expressed in Expi293F cells and purified on protein G. The propeptide of proCTSS is grafted into CDR3H of the anti-HER2 antibody Herceptin

What was measured:
Recombinant human CTSS = molecular target: T1, Recombinant human CTSS (human, UniProt P25774 115-331); assay: fluorogenic protease activity assay (Z-VVR-AMC), initial rates fitted to the competitive inhibition equation
T1 construct: Bought from R&D Systems (1183-CY-010); also called cathepsin S
Experimental: (§1) The inhibition activity of Her-HC-CTSSpp IgG was then examined with human CTSS through fluorescence-based activity assays using a fluorogenic peptide substrate Z-VVR-AMC (FIG. 5). […] CTSS and CTSL belong to the same subfamily of cathepsins. And the propeptide of proCTSS is a known inhibitor of CTSL (28,29). Therefore, the activity of Her-HC-CTSSpp IgG in inhibiting human CTSL was evaluated with a fluorogenic peptide substrate Z-FR-AMC (FIG. 5). […] To further study inhibition specificity of Her-HC-CTSSpp IgG, fluorescence-based activity assays for human CTSB and bovine trypsin were carried out in the absence or presence of Her-HC-CTSSpp IgG.
(§2) Next, inhibition potency and specificity of the designed Syn-LC-CTSSpp Fab antibody were analyzed by fluorescence-based proteolytic activity assays. […] Likewise, Syn-LC-CTSSpp Fab functions as a weaker antibody inhibitor against human CTSL.

Recombinant human CTSL [1] = molecular target: T2, Recombinant human CTSL (human, UniProt P07711 114-333); assay: ratio of Ki values from fluorogenic protease activity assays
T2 construct: Bought; also called cathepsin L

Recombinant human CTSL [2] = molecular target: T2, Recombinant human CTSL; assay: fluorogenic protease activity assay (Z-FR-AMC), initial rates fitted to the competitive inhibition equation
Experimental: as §1, §2

T2 sequence (P07711 114-333): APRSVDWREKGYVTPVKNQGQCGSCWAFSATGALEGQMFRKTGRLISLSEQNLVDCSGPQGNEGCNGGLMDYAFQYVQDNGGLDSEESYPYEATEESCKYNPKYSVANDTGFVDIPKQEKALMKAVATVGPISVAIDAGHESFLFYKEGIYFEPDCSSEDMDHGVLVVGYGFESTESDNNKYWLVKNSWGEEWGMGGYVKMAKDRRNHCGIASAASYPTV

Binder | Ki (Recombinant human CTSS) | fold decrease of potency for CTSL in comparison to CTSS (Recombinant human CTSL [1]) | Ki (Recombinant human CTSL [2])
B1 | 2.12 nM | ~12 fold | 24.5 nM
B2 | 6.03 nM | – | 49.3 nM
